This assay has as its target 8G-AIDA receptor: eight tandemly repeated protein G C2 domains linked with AIDA, on the surface of Escherichia coli BL21 cells (BL21/8G) (not stated (streptococcal)). The experiment in a line: ELISA; bacteria coated on poly-L-lysine-treated 96-well plates (10^7 cfu/well added; about 6.7 × 10^6 cfu/well coated), blocked with 5% skim milk; HRP-conjugated goat anti-mouse IgG Fc (1 μg/mL), room temperature, 1 h; ABTS, absorbance at 405 nm. For orientation: An ELISA detects its analyte on a solid surface through an enzyme-linked reagent.

This passage reports fold of antibody trapped against BL21/1G cells results from article PMC5430508.

Take “HRP-conjugated goat anti-mouse IgG Fc (antibody)”: the fold of antibody trapped against BL21/1G cells was 18.9 fold.
